Test results reported in patent US20240018213A1 (OHIO STATE INNOVATION FOUNDATION, published 2024).

Columns and labels:
mNotch1ECD-Fc [1] = target: T1, mNotch1ECD-Fc (mouse, UniProt Q01705 19-1725); experiment: SPR (open SPR), mNotch1ECD-Fc immobilized, Tan 6 injected at 2.2, 0.45, 0.22, 0.11 and 0 µM; apparent KD
T1 construct: extracellular domain; Immobilized on the SPR chip; also called mouse full length notch extracellular domain; not shown: Fc part
Procedure: (§1) FIG. 25. Open surface plasmon resonance (SPR) binding experiments of DLL1 Tandem 6× against immobilized mouse full length notch extracellular domain (Top) and BSA negative control (bottom). DLL1 Tandem 6× was injected at concentrations of 2.2 μM, 0.45 μM, 0.22 μM, 0.11 μM, and 0 μM (HBS buffer only). Signal to noise of these binding experiments were 3 to 1.
(§2) The signal:noise of binding to Notch1 versus BSA is about 3:1 at the same concentrations.

mNotch1ECD-Fc [2] = target: T1, mNotch1ECD-Fc; experiment: SPR, signal on immobilized mNotch1ECD-Fc against immobilized BSA negative control at the same Tan 6 concentrations
Procedure: as §1, §2

T1 sequence (Q01705 19-1725): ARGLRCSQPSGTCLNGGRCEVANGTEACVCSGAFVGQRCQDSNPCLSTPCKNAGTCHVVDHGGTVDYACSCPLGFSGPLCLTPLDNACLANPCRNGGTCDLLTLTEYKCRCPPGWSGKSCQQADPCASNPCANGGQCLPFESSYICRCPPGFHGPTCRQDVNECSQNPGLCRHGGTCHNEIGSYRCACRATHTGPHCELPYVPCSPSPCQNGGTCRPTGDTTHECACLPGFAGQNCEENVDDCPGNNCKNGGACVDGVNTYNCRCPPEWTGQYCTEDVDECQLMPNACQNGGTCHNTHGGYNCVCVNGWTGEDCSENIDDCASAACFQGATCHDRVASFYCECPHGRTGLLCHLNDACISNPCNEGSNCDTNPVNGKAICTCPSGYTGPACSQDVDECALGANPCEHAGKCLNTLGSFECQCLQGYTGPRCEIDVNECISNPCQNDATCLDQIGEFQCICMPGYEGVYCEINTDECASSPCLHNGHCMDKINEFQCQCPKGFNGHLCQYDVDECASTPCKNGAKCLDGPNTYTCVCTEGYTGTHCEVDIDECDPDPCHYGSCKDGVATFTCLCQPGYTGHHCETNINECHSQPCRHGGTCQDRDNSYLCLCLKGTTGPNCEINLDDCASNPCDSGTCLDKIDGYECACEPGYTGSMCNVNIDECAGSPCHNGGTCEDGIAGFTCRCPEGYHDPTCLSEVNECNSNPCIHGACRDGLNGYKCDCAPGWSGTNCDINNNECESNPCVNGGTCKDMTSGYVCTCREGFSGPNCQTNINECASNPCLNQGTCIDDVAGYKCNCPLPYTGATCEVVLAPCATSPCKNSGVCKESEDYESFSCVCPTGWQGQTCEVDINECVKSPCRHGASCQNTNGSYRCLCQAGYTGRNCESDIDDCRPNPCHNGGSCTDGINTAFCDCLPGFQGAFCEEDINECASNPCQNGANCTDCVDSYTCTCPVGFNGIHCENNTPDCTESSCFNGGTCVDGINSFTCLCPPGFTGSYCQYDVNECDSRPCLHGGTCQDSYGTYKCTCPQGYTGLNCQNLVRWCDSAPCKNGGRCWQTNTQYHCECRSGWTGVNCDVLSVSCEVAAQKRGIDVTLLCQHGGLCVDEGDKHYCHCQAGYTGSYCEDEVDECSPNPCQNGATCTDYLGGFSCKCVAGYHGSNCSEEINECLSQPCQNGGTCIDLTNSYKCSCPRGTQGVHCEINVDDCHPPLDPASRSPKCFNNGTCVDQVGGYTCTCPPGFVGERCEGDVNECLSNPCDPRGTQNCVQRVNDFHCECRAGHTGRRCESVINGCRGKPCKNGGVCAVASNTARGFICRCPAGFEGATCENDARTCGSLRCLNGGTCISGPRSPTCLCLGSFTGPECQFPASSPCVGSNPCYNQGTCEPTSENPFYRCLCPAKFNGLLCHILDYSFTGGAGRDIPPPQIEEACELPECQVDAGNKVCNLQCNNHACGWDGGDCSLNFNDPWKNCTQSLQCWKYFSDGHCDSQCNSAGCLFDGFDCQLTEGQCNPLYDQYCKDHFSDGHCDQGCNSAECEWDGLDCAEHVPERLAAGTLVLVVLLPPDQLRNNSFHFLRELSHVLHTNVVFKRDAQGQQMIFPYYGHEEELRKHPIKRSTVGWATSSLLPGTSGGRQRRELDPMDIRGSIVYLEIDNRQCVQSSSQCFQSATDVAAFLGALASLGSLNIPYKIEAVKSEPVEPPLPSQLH

Kd (mNotch1ECD-Fc [1]): 1500 nM | signal:noise of binding to Notch1 versus BSA (mNotch1ECD-Fc [2]): ~3 ratio (Notch1 : BSA)
B1: MuDLL1.DSL-EGF12.Tan 6 (NL 99) (ligand)
chain: MAAHHHHHHGGENLYFQGFVCDEHYYGEGCSVFCRPRDDAFGHFTCGDRGEKMCDPGWKGQYCTDPICLPGCDDQHGYCDKPGECKCRVGWQGRYCDECIRYPGCLHGTCQQPWQCNCQEGWGGLFCNQGSSGSSGFVCDEHYYGEGCSVFCRPRDDAFGHFTCGDRGEKMCDPGWKGQYCTDPICLPGCDDQHGYCDKPGECKCRVGWQGRYCDECIRYPGCLHGTCQQPWQCNCQEGWGGLFCNQGSSGSSGFVCDEHYYGEGCSVFCRPRDDAFGHFTCGDRGEKMCDPGWKGQYCTDPICLPGCDDQHGYCDKPGECKCRVGWQGRYCDECIRYPGCLHGTCQQPWQCNCQEGWGGLFCNQGSSGSSGFVCDEHYYGEGCSVFCRPRDDAFGHFTCGDRGEKMCDPGWKGQYCTDPICLPGCDDQHGYCDKPGECKCRVGWQGRYCDECIRYPGCLHGTCQQPWQCNCQEGWGGLFCNQGSSGSSGFVCDEHYYGEGCSVFCRPRDDAFGHFTCGDRGEKMCDPGWKGQYCTDPICLPGCDDQHGYCDKPGECKCRVGWQGRYCDECIRYPGCLHGTCQQPWQCNCQEGWGGLFCNQGSSGSSGFVCDEHYYGEGCSVFCRPRDDAFGHFTCGDRGEKMCDPGWKGQYCTDPICLPGCDDQHGYCDKPGECKCRVGWQGRYCDECIRYPGCLHGTCQQPWQCNCQEGWGGLFCNQ
notes: also called DLL1 Tandem 6×; hexamer
